Laboratory results published in paper PMC9482650, “Quantitative fragmentomics allow affinity mapping of interactomes” (Nature Communications, 2022).

Key:
Test in all cases: holdup assay
Design in all cases: key: below the threshold = too weak to quantify, mostly under pKd 3.1 to 4
APBA1_2, Q02410 = target: T1, APBA1_2, Q02410
T1 sequence (Q02410 742-832, limits assumed, looked up): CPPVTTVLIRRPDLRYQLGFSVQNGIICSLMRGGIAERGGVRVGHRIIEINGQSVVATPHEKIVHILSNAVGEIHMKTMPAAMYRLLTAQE

APBA2_1, Q99767 = target: T2, APBA2_1, Q99767
T2 sequence (Q99767 563-664, limits assumed, looked up): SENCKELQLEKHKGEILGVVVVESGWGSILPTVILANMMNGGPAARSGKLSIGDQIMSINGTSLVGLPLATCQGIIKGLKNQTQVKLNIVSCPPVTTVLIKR

CASK, O14936 = target: CASK, O14936
DFNB31_1, Q9P202 = target: T3, DFNB31_1, Q9P202
T3 sequence (Q9P202 135-233, limits assumed, looked up): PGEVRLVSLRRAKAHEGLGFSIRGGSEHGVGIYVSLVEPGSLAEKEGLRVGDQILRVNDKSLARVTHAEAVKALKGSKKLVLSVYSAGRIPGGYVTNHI

DFNB31_2, Q9P202 = target: T4, DFNB31_2, Q9P202
T4 sequence (Q9P202 274-371, limits assumed, looked up): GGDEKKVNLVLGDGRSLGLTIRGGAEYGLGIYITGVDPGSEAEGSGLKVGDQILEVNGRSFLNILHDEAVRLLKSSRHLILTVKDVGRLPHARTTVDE

DLG1_1, Q12959 = target: DLG1_1, Q12959
DLG1_2, Q12959 = target: DLG1_2, Q12959
DLG1_3, Q12959 = target: DLG1_3, Q12959
GIPC2, Q8TF65 = target: GIPC2, Q8TF65
GRIP1_5, Q9Y3R0 = target: T5, GRIP1_5, Q9Y3R0
T5 sequence (Q9Y3R0 568-668, limits assumed, looked up): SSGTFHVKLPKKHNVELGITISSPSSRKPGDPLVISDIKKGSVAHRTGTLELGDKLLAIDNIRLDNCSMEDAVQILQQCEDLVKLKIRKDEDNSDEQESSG

GRIP2_6, Q9C0E4 = target: GRIP2_6, Q9C0E4
HTRA4, P83105 = target: T6, HTRA4, P83105
T6 sequence (P83105 378-476, limits assumed, looked up): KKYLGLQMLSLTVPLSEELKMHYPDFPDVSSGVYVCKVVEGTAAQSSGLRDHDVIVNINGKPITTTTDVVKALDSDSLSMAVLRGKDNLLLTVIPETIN

Inadl_3, Q8NI35 = target: Inadl_3, Q8NI35
LNX2_3, Q8N448 = target: T7, LNX2_3, Q8N448
T7 sequence (Q8N448 463-564, limits assumed, looked up): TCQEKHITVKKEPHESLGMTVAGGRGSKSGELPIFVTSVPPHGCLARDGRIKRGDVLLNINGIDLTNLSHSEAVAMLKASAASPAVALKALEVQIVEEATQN

LRRC7, Q96NW7 = target: T8, LRRC7, Q96NW7
T8 sequence (Q96NW7 1440-1537, limits assumed, looked up): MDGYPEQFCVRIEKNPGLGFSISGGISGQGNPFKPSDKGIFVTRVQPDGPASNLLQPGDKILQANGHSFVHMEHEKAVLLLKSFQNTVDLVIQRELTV

MAGI2_6, Q86UL8 = target: MAGI2_6, Q86UL8
MAST1, Q9Y2H9 = target: MAST1, Q9Y2H9
NHERF2_2, Q15599 = target: NHERF2_2, Q15599
NHERF3_1, Q5T2W1 = target: T9, NHERF3_1, Q5T2W1
T9 sequence (Q5T2W1 4-100, limits assumed, looked up): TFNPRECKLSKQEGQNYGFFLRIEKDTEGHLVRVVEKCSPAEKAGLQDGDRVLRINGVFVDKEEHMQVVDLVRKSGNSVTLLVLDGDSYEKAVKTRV

NHERF4_2, Q86UT5 = target: NHERF4_2, Q86UT5
PDZD7_3, Q9H5P4 = target: T10, PDZD7_3, Q9H5P4
T10 sequence (Q9H5P4 857-944, limits assumed, looked up): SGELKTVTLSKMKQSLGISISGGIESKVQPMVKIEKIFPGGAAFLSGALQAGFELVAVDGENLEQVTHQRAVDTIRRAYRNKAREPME

SCRIB_1, Q14160 = target: SCRIB_1, Q14160
SIPA1L2, Q9P2F8 = target: T11, SIPA1L2, Q9P2F8
T11 sequence (Q9P2F8 945-1036, limits assumed, looked up): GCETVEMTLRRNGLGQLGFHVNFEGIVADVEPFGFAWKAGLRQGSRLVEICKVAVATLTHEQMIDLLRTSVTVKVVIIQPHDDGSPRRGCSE

TIAM2, Q8IVF5 = target: T12, TIAM2, Q8IVF5
T12 sequence (Q8IVF5 885-986, limits assumed, looked up): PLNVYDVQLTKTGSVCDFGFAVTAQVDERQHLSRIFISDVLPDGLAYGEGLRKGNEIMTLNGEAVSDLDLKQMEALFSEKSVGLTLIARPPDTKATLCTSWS

TJP3_3, O95049 = target: T13, TJP3_3, O95049
T13 sequence (O95049 375-456, limits assumed, looked up): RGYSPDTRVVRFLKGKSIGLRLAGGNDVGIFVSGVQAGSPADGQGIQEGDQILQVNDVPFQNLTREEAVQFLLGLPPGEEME

[1] = modified: phospho on T at position -1 from the C-terminal residue
[2] = plain residues with an end cap or a label only (N-terminal biotin on a linker: ado-ado)
[3] = modified: phospho on T at position -2 from the C-terminal residue

SCRIB_1, Q14160, sequence (Q14160 718-814): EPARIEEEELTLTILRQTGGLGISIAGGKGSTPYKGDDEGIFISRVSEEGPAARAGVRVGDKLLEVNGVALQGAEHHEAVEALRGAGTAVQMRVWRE
MAST1, Q9Y2H9, sequence (Q9Y2H9 962-1065): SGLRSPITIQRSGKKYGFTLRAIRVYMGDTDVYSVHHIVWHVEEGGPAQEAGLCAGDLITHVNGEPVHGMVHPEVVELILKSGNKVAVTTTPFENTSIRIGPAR
NHERF4_2, Q86UT5, sequence (Q86UT5 220-308): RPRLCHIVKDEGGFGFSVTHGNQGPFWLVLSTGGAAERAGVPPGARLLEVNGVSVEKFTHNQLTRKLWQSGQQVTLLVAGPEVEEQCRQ
Inadl_3, Q8NI35, sequence (Q8NI35 359-469): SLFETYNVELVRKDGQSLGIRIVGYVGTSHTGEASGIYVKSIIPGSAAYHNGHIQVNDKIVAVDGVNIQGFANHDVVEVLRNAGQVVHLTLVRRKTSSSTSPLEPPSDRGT
NHERF2_2, Q15599, sequence (Q15599 142-238): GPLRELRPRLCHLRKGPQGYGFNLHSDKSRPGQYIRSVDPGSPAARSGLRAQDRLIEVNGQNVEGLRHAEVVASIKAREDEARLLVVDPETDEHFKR
GIPC2, Q8TF65, sequence (Q8TF65 112-203): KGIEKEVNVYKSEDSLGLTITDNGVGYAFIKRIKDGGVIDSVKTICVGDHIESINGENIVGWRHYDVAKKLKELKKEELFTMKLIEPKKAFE
CASK, O14936, sequence (O14936 487-570): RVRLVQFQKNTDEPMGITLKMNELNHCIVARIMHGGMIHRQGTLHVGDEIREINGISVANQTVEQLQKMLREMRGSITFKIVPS
MAGI2_6, Q86UL8, sequence (Q86UL8 1141-1229): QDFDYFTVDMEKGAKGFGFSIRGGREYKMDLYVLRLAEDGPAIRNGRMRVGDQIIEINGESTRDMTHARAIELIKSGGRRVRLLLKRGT
GRIP2_6, Q9C0E4, sequence (Q9C0E4 648-740): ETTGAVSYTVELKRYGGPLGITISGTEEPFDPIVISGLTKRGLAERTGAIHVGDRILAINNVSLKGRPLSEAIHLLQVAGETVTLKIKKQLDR

For RRVRKLPSTTL [RPS6KA1_-1P, Q15418], the pKd (APBA1_2, Q02410; [1]) was “below the threshold”, the pKd (APBA2_1, Q99767; [1]) was “below the threshold” and the pKd (CASK, O14936; [1]) was “below the threshold”. For the same binder, the pKd (DFNB31_1, Q9P202; [1]) was 3.6, the pKd (DFNB31_2, Q9P202; [1]) was “below the threshold” and the pKd (DLG1_1, Q12959; [1]) was 3.82. It also gave a pKd (DLG1_2, Q12959; [1]) of 3.83, a pKd (DLG1_3, Q12959; [1]) of 3.7 and a pKd (GIPC2, Q8TF65; [1]) of 3.55. The pKd (GRIP1_5, Q9Y3R0; [1]) was “below the threshold”, the pKd (GRIP2_6, Q9C0E4; [1]) was “below the threshold” and the pKd (HTRA4, P83105; [1]) was 3.48. For the same binder, the pKd (Inadl_3, Q8NI35; [1]) was 3.76, the pKd (LNX2_3, Q8N448; [1]) was “below the threshold” and the pKd (LRRC7, Q96NW7; [1]) was 3.47. For the same binder, the pKd (MAGI2_6, Q86UL8; [1]) was 3.83, the pKd (MAST1, Q9Y2H9; [1]) was 4.5 and the pKd (NHERF2_2, Q15599; [1]) was 4.02. The pKd (NHERF3_1, Q5T2W1; [1]) was 4.2, the pKd (NHERF4_2, Q86UT5; [1]) was “below the threshold” and the pKd (PDZD7_3, Q9H5P4; [1]) was 4.91. For the same binder, the pKd (SCRIB_1, Q14160; [1]) was 4.02, the pKd (SIPA1L2, Q9P2F8; [1]) was “below the threshold” and the pKd (TIAM2, Q8IVF5; [1]) was 3.41. For the same binder, the pKd (TJP3_3, O95049; [1]) was “below the threshold”.

For SMLNRRTTPV [CACNG4, Q9UBN1], the pKd (APBA1_2, Q02410; [2]) was 3.73, the pKd (APBA2_1, Q99767; [2]) was “below the threshold” and the pKd (CASK, O14936; [2]) was “below the threshold”. For the same binder, the pKd (DFNB31_1, Q9P202; [2]) was 4, the pKd (DFNB31_2, Q9P202; [2]) was “below the threshold” and the pKd (DLG1_1, Q12959; [2]) was 4.42. The pKd (DLG1_2, Q12959; [2]) was 4.98, the pKd (DLG1_3, Q12959; [2]) was 4.39 and the pKd (GIPC2, Q8TF65; [2]) was “below the threshold”. For the same binder, the pKd (GRIP1_5, Q9Y3R0; [2]) was “below the threshold”, the pKd (GRIP2_6, Q9C0E4; [2]) was “below the threshold” and the pKd (HTRA4, P83105; [2]) was “below the threshold”. For the same binder, the pKd (Inadl_3, Q8NI35; [2]) was “below the threshold”, the pKd (LNX2_3, Q8N448; [2]) was “below the threshold” and the pKd (LRRC7, Q96NW7; [2]) was “below the threshold”. For the same binder, the pKd (MAGI2_6, Q86UL8; [2]) was “below the threshold”, the pKd (MAST1, Q9Y2H9; [2]) was 4.29 and the pKd (NHERF2_2, Q15599; [2]) was “below the threshold”. For the same binder, the pKd (NHERF3_1, Q5T2W1; [2]) was “below the threshold”, the pKd (NHERF4_2, Q86UT5; [2]) was “below the threshold” and the pKd (PDZD7_3, Q9H5P4; [2]) was 4.07. For the same binder, the pKd (SCRIB_1, Q14160; [2]) was 3.56, the pKd (SIPA1L2, Q9P2F8; [2]) was “below the threshold” and the pKd (TIAM2, Q8IVF5; [2]) was “below the threshold”. The pKd (TJP3_3, O95049; [2]) was “below the threshold”.

With LSEFKAMDSF [CTNNA2, P26232] the pKd (APBA1_2, Q02410; [2]) was “below the threshold”, the pKd (APBA2_1, Q99767; [2]) was “below the threshold” and the pKd (CASK, O14936; [2]) was “below the threshold”. The pKd (DFNB31_1, Q9P202; [2]) was “below the threshold”, the pKd (DFNB31_2, Q9P202; [2]) was “below the threshold” and the pKd (DLG1_1, Q12959; [2]) was “below the threshold”. The pKd (DLG1_2, Q12959; [2]) was “below the threshold”, the pKd (DLG1_3, Q12959; [2]) was “below the threshold” and the pKd (GIPC2, Q8TF65; [2]) was “below the threshold”. The pKd (GRIP1_5, Q9Y3R0; [2]) was “below the threshold”, the pKd (GRIP2_6, Q9C0E4; [2]) was “below the threshold” and the pKd (HTRA4, P83105; [2]) was “below the threshold”. For the same binder, the pKd (Inadl_3, Q8NI35; [2]) was “below the threshold”, the pKd (LNX2_3, Q8N448; [2]) was “below the threshold” and the pKd (LRRC7, Q96NW7; [2]) was “below the threshold”. The pKd (MAGI2_6, Q86UL8; [2]) was “below the threshold”, the pKd (MAST1, Q9Y2H9; [2]) was “below the threshold” and the pKd (NHERF2_2, Q15599; [2]) was “below the threshold”. The pKd (NHERF3_1, Q5T2W1; [2]) was “below the threshold”, the pKd (NHERF4_2, Q86UT5; [2]) was “below the threshold” and the pKd (PDZD7_3, Q9H5P4; [2]) was “below the threshold”. The pKd (SCRIB_1, Q14160; [2]) was “below the threshold”, the pKd (SIPA1L2, Q9P2F8; [2]) was “below the threshold” and the pKd (TIAM2, Q8IVF5; [2]) was 4.11. For the same binder, the pKd (TJP3_3, O95049; [2]) was “below the threshold”.

RRVRKLPSTTL [RPS6KA1_-2P, Q15418] was tested, and the pKd (APBA1_2, Q02410; [3]) was “below the threshold”, the pKd (APBA2_1, Q99767; [3]) was “below the threshold” and the pKd (CASK, O14936; [3]) was “below the threshold”. For the same binder, the pKd (DFNB31_1, Q9P202; [3]) was “below the threshold”, the pKd (DFNB31_2, Q9P202; [3]) was “below the threshold” and the pKd (DLG1_1, Q12959; [3]) was 3.58. For the same binder, the pKd (DLG1_2, Q12959; [3]) was “below the threshold”, the pKd (DLG1_3, Q12959; [3]) was “below the threshold” and the pKd (GIPC2, Q8TF65; [3]) was “below the threshold”. The pKd (GRIP1_5, Q9Y3R0; [3]) was “below the threshold”, the pKd (GRIP2_6, Q9C0E4; [3]) was “below the threshold” and the pKd (HTRA4, P83105; [3]) was “below the threshold”. The pKd (Inadl_3, Q8NI35; [3]) was “below the threshold”, the pKd (LNX2_3, Q8N448; [3]) was “below the threshold” and the pKd (LRRC7, Q96NW7; [3]) was “below the threshold”. The pKd (MAGI2_6, Q86UL8; [3]) was “below the threshold”, the pKd (MAST1, Q9Y2H9; [3]) was “below the threshold” and the pKd (NHERF2_2, Q15599; [3]) was “below the threshold”. For the same binder, the pKd (NHERF3_1, Q5T2W1; [3]) was “below the threshold”, the pKd (NHERF4_2, Q86UT5; [3]) was “below the threshold” and the pKd (PDZD7_3, Q9H5P4; [3]) was 3.5. For the same binder, the pKd (SCRIB_1, Q14160; [3]) was “below the threshold”, the pKd (SIPA1L2, Q9P2F8; [3]) was “below the threshold” and the pKd (TIAM2, Q8IVF5; [3]) was “below the threshold”. The pKd (TJP3_3, O95049; [3]) was “below the threshold”.
